The values below come from publication PMC4917968.

For experiment [1], the target named is Full-length mouse eRF1 (mouse) (UniProt Q8BWY3). Nature of the experiment: ITC; 22 °C, MicroCal VP-ITC; 20 mM HEPES pH 7.5, 150 mM NaCl, 5 mM TCEP; injectant protein 220-300 μM into a cell with 13-20 μM protein; single-site model. A general note: Isothermal titration calorimetry measures the heat released or taken up as one component is titrated into another.

The target is the same in experiment [2]. Nature of the experiment: ITC; competition: RNase H (WT or mutant) titrated to the preformed eRF1/eRF3 complex; apparent Kd; 22 °C, 20 mM HEPES pH 7.5, 150 mM NaCl, 5 mM TCEP; single-site model.

The substance “RNase H mutant F588A (isolated RNase H domain of MoMLV RT) (domain or fragment)” had a fold reduction of binding against WT RNase H in experiment [1] of 10 fold.

“Isolated RNase H domain of MoMLV RT (aa 500–671) (domain or fragment)”: the Kd was determined as 4.18 µM in experiment [1] and 5.6 µM in experiment [2].
